Molecular target: tFKBP*3R (UniProt P62942 2-108, F37V;M50R;E55R;T86R)
Experiment: filter binding

tFKBP*3R, sequence (P62942 2-108 F37V/M50R/E55R/T86R): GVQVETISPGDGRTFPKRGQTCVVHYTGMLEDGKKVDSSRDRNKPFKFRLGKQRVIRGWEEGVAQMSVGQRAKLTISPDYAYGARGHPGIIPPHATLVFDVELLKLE

B1: s23 U74C (structured_RNA)
RNA: GGGCAUUGGAUCGCAUUGUCAUUUCAUUGUGGCGGUGCAGUCAAAUGUGAUGCUUCGUUCAGUGACGGGAGGGCUGUGAGUGGUCUGAACGUAAGC
With B1 the Kd was 10.8 ± 3.8 nM.
